# Reference: article PMC4782060, “Mechanism of intermediate filament recognition by plakin repeat domains revealed by envoplakin targeting of vimentin” (Nature Communications, 2016)
# T1: wild-type human envoplakin plakin repeat domain (PRD), residues Asp1822-Ala2014 (human, UniProt Q92817 1822-2014)
# T1 construct: envoplakin, human, plakin repeat domain, residues Asp1822-Ala2014; vector pProEX-HTC; also called envoplakin PRD; WT; source: E. coli BL21(DE3), purified (HisTrap, TEV cleavage, S75 size exclusion)
# T1 sequence (looked up): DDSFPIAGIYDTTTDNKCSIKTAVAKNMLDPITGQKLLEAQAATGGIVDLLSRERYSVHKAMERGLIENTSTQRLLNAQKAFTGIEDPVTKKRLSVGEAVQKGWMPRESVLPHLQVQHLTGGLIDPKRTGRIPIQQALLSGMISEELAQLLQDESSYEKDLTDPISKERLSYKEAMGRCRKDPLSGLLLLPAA
# T2: envoplakin PRD K2002E (control mutation) (human, UniProt Q92817 1822-2014, K2002E)
# T2 construct: envoplakin, human, plakin repeat domain, residues Asp1822-Ala2014, mutant K2002E; 15N-labelled for NMR; source: E. coli BL21(DE3), purified (HisTrap, TEV cleavage, S75 size exclusion)
# T2 sequence (looked up): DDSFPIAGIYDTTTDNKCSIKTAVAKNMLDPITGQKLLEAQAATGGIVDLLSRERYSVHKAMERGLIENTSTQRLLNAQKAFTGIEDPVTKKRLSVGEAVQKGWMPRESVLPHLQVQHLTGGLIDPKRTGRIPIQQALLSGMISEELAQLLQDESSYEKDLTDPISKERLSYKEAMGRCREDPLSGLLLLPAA
# B1: envoplakin PRD K1901E (domain or fragment, human, UniProt Q92817 1822-2014, looked up)
# chain: DDSFPIAGIYDTTTDNKCSIKTAVAKNMLDPITGQKLLEAQAATGGIVDLLSRERYSVHKAMERGLIENTSTQRLLNAQEAFTGIEDPVTKKRLSVGEAVQKGWMPRESVLPHLQVQHLTGGLIDPKRTGRIPIQQALLSGMISEELAQLLQDESSYEKDLTDPISKERLSYKEAMGRCRKDPLSGLLLLPAA
# notes: envoplakin, human, plakin repeat domain, residues Asp1822-Ala2014, mutant K1901E; 15N-labelled for NMR; source: E. coli BL21(DE3), purified (HisTrap, TEV cleavage, S75 size exclusion)
# B2: envoplakin PRD R1914E (domain or fragment, human, UniProt Q92817 1822-2014, looked up)
# chain: DDSFPIAGIYDTTTDNKCSIKTAVAKNMLDPITGQKLLEAQAATGGIVDLLSRERYSVHKAMERGLIENTSTQRLLNAQKAFTGIEDPVTKKELSVGEAVQKGWMPRESVLPHLQVQHLTGGLIDPKRTGRIPIQQALLSGMISEELAQLLQDESSYEKDLTDPISKERLSYKEAMGRCRKDPLSGLLLLPAA
# notes: envoplakin, human, plakin repeat domain, residues Asp1822-Ala2014, mutant R1914E; 15N-labelled for NMR; also called K1914E (as printed once in the text); source: E. coli BL21(DE3), purified (HisTrap, TEV cleavage, S75 size exclusion)
# B3: envoplakin PRD K1847E (control mutation) (domain or fragment, human, UniProt Q92817 1822-2014, looked up)
# chain: DDSFPIAGIYDTTTDNKCSIKTAVAENMLDPITGQKLLEAQAATGGIVDLLSRERYSVHKAMERGLIENTSTQRLLNAQKAFTGIEDPVTKKRLSVGEAVQKGWMPRESVLPHLQVQHLTGGLIDPKRTGRIPIQQALLSGMISEELAQLLQDESSYEKDLTDPISKERLSYKEAMGRCRKDPLSGLLLLPAA
# notes: envoplakin, human, plakin repeat domain, residues Asp1822-Ala2014, mutant K1847E; 15N-labelled for NMR; source: E. coli BL21(DE3), purified (HisTrap, TEV cleavage, S75 size exclusion)
# Experiments:
# Conditions in all cases: both partners purified
# [1] = target: T1, wild-type human envoplakin plakin …; assay: SPR; His-tagged vimentin^ROD (wild type or mutant) immobilised on nickel-coated chips, Biacore 3000; envoplakin PRD 0-100 μM flowed over; 150 mM NaCl, 10 mM Hepes, 3 mM EDTA, 0.005% Surfactant P20, pH 7.4
# [2] = target: T2, envoplakin PRD K2002E (control mutation); assay: as above
# envoplakin PRD R1914E = target: B2; assay: as above
# [3] = target: B3; assay: as above
# envoplakin PRD K1901E = target: B1; assay: as above
# [4] = target: T3, full-length human vimentin (residues Met1-Glu466) (human, UniProt P08670 1-466); assay: NMR titration; unlabelled full-length vimentin (10, 50, 100, 200 μM) added to 100 μM 15N-labelled wild-type or mutant envoplakin PRD; 1H,15N HSQC peak intensities; 20 mM Tris-Cl, pH 7, 1 mM DTT, no salt, 298 K
# T3 construct: vimentin, human, residues Met1-Glu466; Vector pET21a+; also called vimentin^FL; full-length vimentin
# T3 sequence (P08670 whole entry, the tested form may be a part): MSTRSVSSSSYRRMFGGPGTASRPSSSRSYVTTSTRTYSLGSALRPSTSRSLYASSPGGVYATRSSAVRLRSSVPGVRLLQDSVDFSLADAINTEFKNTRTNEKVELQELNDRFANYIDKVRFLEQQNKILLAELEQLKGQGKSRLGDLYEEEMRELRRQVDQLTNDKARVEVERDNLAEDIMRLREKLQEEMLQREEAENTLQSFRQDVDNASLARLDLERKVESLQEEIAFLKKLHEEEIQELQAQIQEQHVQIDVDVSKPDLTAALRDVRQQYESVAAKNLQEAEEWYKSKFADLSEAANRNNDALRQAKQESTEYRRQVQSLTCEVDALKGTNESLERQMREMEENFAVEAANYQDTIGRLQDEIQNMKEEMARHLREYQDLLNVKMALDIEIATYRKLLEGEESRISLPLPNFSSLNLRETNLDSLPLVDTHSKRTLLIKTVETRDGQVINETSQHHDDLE
Binder,Kd [1] [µM],binding result [4],further results
"vimentin^ROD D112K (domain or fragment, vimentin, human, rod residues 99-249, mutant D112K) not shown",106 ± 45.6,,
"vimentin^ROD D119K (domain or fragment, vimentin, human, rod residues 99-249, mutant D119K) not shown",48.4 ± 5.5,,
"vimentin^ROD double mutant D112K/D119K (domain or fragment, vimentin, human, rod residues 99-249, double mutant D112K/D119K) not shown",1500 ± 139,,
"vimentin^ROD construct, vimentin residues 99-249 (coils 1A and 1B of the central rod domain) (domain or fragment, vimentin, human, rod residues 99-249, coils 1A and 1B; Vector pET21a+; His tag retained for SPR; also called WT; envoplakin^ROD (as printed once in the text)) not shown",19.1 ± 1.3,,Kd [2]: 14.5 ± 0.4 µM; Kd (envoplakin PRD R1914E): 132 ± 34.7 µM; Kd [3]: 26.5 ± 2 µM; Kd (envoplakin PRD K1901E): 69.3 ± 10.6 µM
"envoplakin PRD R1895E (domain or fragment, human, UniProt Q92817 1822-2014, looked up, envoplakin, human, plakin repeat domain, residues Asp1822-Ala2014, mutant R1895E; 15N-labelled for NMR; source: E. coli BL21(DE3), purified (HisTrap, TEV cleavage, S75 size exclusion)) DDSFPIAGIYDTTTDNKCSIKTAVAKNMLDPITGQKLLEAQAATGGIVDLLSRERYSVHKAMERGLIENTSTQELLNAQKAFTGIEDPVTKKRLSVGEAVQKGWMPRESVLPHLQVQHLTGGLIDPKRTGRIPIQQALLSGMISEELAQLLQDESSYEKDLTDPISKERLSYKEAMGRCRKDPLSGLLLLPAA",,binds,
"envoplakin PRD K1988E (control mutation) (domain or fragment, human, UniProt Q92817 1822-2014, looked up, envoplakin, human, plakin repeat domain, residues Asp1822-Ala2014, mutant K1988E; 15N-labelled for NMR; source: E. coli BL21(DE3), purified (HisTrap, TEV cleavage, S75 size exclusion)) DDSFPIAGIYDTTTDNKCSIKTAVAKNMLDPITGQKLLEAQAATGGIVDLLSRERYSVHKAMERGLIENTSTQRLLNAQKAFTGIEDPVTKKRLSVGEAVQKGWMPRESVLPHLQVQHLTGGLIDPKRTGRIPIQQALLSGMISEELAQLLQDESSYEKDLTDPISEERLSYKEAMGRCRKDPLSGLLLLPAA",,binds,
B1,,binds,
"envoplakin PRD K1994E (domain or fragment, human, UniProt Q92817 1822-2014, looked up, envoplakin, human, plakin repeat domain, residues Asp1822-Ala2014, mutant K1994E; 15N-labelled for NMR; source: E. coli BL21(DE3), purified (HisTrap, TEV cleavage, S75 size exclusion)) DDSFPIAGIYDTTTDNKCSIKTAVAKNMLDPITGQKLLEAQAATGGIVDLLSRERYSVHKAMERGLIENTSTQRLLNAQKAFTGIEDPVTKKRLSVGEAVQKGWMPRESVLPHLQVQHLTGGLIDPKRTGRIPIQQALLSGMISEELAQLLQDESSYEKDLTDPISKERLSYEEAMGRCRKDPLSGLLLLPAA",,binds,
"envoplakin PRD R1952A (domain or fragment, human, UniProt Q92817 1822-2014, looked up, envoplakin, human, plakin repeat domain, residues Asp1822-Ala2014, mutant R1952A; 15N-labelled for NMR; source: E. coli BL21(DE3), purified (HisTrap, TEV cleavage, S75 size exclusion)) DDSFPIAGIYDTTTDNKCSIKTAVAKNMLDPITGQKLLEAQAATGGIVDLLSRERYSVHKAMERGLIENTSTQRLLNAQKAFTGIEDPVTKKRLSVGEAVQKGWMPRESVLPHLQVQHLTGGLIDPKRTGAIPIQQALLSGMISEELAQLLQDESSYEKDLTDPISKERLSYKEAMGRCRKDPLSGLLLLPAA",,binds,
B2,,binds,
B3,,binds,
"envoplakin PRD R1990E (control mutation) (domain or fragment, human, UniProt Q92817 1822-2014, looked up, envoplakin, human, plakin repeat domain, residues Asp1822-Ala2014, mutant R1990E; 15N-labelled for NMR; source: E. coli BL21(DE3), purified (HisTrap, TEV cleavage, S75 size exclusion)) DDSFPIAGIYDTTTDNKCSIKTAVAKNMLDPITGQKLLEAQAATGGIVDLLSRERYSVHKAMERGLIENTSTQRLLNAQKAFTGIEDPVTKKRLSVGEAVQKGWMPRESVLPHLQVQHLTGGLIDPKRTGRIPIQQALLSGMISEELAQLLQDESSYEKDLTDPISKEELSYKEAMGRCRKDPLSGLLLLPAA",,binds,
